Test results: the supplement of paper PMC7877785
± gives the uncertainty stated by the source.

Test: self-splicing fitness, log relative to wild type (ln ratio); higher = more splicing; Tetrahymena group I intron in knt gene, E. coli kanamycin selection, DiMSum; sequences stand for … in CUCUCU…GGAGGGAAAAGUUAUCAGGCAUGCACCUGGUAGCUAGUCUUUAAACCAAUAGAUUGCAUCGGUUUAAAAGGCAAGACCGUCAAAUUGCGGGAAAGGGGUCAACAGCCGUUCAGUACCAAGUCUCAGGGGAAACUUUGAGAUGGCCUUGCAAAGGGUAUGGUAAUAAGCUGACGGACAUGGUCCUAACCACGCAGCCAAGUCCUAAGUCAACAGAUCUUCUGUUGAUAUGGAUGCAGUUCACAGACUAAAUGUCGGUCGGGGAAGAUGUAUUCUUCUCAUAAGAUAUAGUCGGACCUCUCCUUAAUGGGAGCUAGCGGAUGAAGUGAUGCAACACUGGAGCCGCUGGGAACUAAUUUGUAUGCGAAAGUAUAUUGAUUAGUUUUGGAGUACUCGUGGUCG
How it was run: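 Six replicate transformations of E. coli BL21(DE3) with a pET-22b(+) library were grown overnight at 37°C or 30°C. The library randomised all eight P1ex-region intron nucleotides, the intron lying in the knt kanamycin-resistance gene, and plates were LB agar with or without 25 μg/mL kanamycin plus 100 μg/mL carbenicillin, 50 μM IPTG and 0.2% rhamnose. Pooled colonies were amplicon-sequenced on an Illumina HiSeq 2500, and fitness is the DiMSum error-weighted combination of wild-type-normalised replicate fold changes, kanamycin versus none.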

Row | Sequence | self-splicing fitness (ln) (30 °C) | self-splicing fitness (ln) (37 °C)
1 | UCUAAGCAAUAUUACGCGCA | -0.493 ± 0.11 | -0.561 ± 0.13
2 | UCUAAGCAAUAUUACGCUAA | -3.04 ± 0.19 | -1.84 ± 0.18
3 | UCUAAGCAAUAUUACGCUAC |  | -1.73 ± 0.45
4 | UCUAAGCAAUAUUACGCUUC | -3.47 ± 0.3 | -1.9 ± 0.31
5 | UCUAAGCAAUAUUACGGCAA | -1.94 ± 0.34 | -1.22 ± 0.21
6 | UCUAAGCAAUAUUACGGGAC | -3.56 ± 0.35 | -2.34 ± 0.4
7 | UCUAAGCAAUAUUACGGGAU | -2.77 ± 0.14 | -2.67 ± 0.18
8 | UCUAAGCAAUAUUACGGGUC | -2.67 ± 0.26 | -1.16 ± 0.37
9 | UCUAAGCAAUAUUACGGUCC |  | -0.662 ± 0.27
10 | UCUAAGCAAUAUUACGGUCG | -1.34 ± 0.095 | -0.375 ± 0.13
11 | UCUAAGCAAUAUUACGUAGG | -1.65 ± 0.093 | -1.24 ± 0.15
12 | UCUAAGCAAUAUUACGUCCG | -0.454 ± 0.15 | -0.55 ± 0.14
13 | UCUAAGCAAUAUUACGUCGC | -2.06 ± 0.23 | -1.22 ± 0.25
14 | UCUAAGCAAUAUUACGUCUU | -4.03 ± 0.27 | -4.18 ± 0.46
15 | UCUAAGCAAUAUUACGUGGG | -3.09 ± 0.19 | -1.92 ± 0.2
16 | UCUAAGCAAUAUUACGUUGC | -3.92 ± 0.34 | -2.81 ± 0.29
17 | UCUCAGCAAUAUUACGAACA | -1.41 ± 0.12 | -1.01 ± 0.13
18 | UCUCAGCAAUAUUACGAAGU | -2.33 ± 0.26 | -0.109 ± 0.16
19 | UCUCAGCAAUAUUACGAAUA | -2.57 ± 0.21 | -0.0366 ± 0.13
20 | UCUCAGCAAUAUUACGACGA | -0.256 ± 0.12 | -0.879 ± 0.13

Row | Sequence | self-splicing fitness (ln) (30 °C) | self-splicing fitness (ln) (37 °C)
21 | UCUCAGCAAUAUUACGACGU | -0.386 ± 0.07 | -0.541 ± 0.08
22 | UCUCAGCAAUAUUACGAGAA | -2.45 ± 0.29 | -0.803 ± 0.2
23 | UCUCAGCAAUAUUACGCAAA | -3.55 ± 0.4 | -1.59 ± 0.21
24 | UCUCAGCAAUAUUACGCAAC | -4.04 ± 0.39 | 
25 | UCUCAGCAAUAUUACGCACA | -1.72 ± 0.19 | -0.264 ± 0.15
26 | UCUCAGCAAUAUUACGCAUU | -0.39 ± 0.11 | -1.55 ± 0.15
27 | UCUCAGCAAUAUUACGCCGA |  | -0.855 ± 0.18
28 | UCUCAGCAAUAUUACGCCGU | -2.55 ± 0.25 | -1.56 ± 0.22
29 | UCUCAGCAAUAUUACGCCUA | -2.3 ± 0.19 | -1.22 ± 0.2
30 | UCUCAGCAAUAUUACGCGAG | -3.73 ± 0.37 | -0.582 ± 0.15
31 | UCUCAGCAAUAUUACGCGCA | -0.638 ± 0.16 | -0.617 ± 0.18
32 | UCUCAGCAAUAUUACGCUAC | -3.11 ± 0.35 | -2.14 ± 0.41
33 | UCUCAGCAAUAUUACGCUGA | -2.7 ± 0.25 | -3.19 ± 0.4
34 | UCUCAGCAAUAUUACGCUUA | -2.42 ± 0.31 | -2.93 ± 0.24
35 | UCUCAGCAAUAUUACGGAGC | -2.1 ± 0.47 | -2.27 ± 0.47
36 | UCUCAGCAAUAUUACGGCAC | -2.33 ± 0.24 | -1.79 ± 0.38
37 | UCUCAGCAAUAUUACGGGCU | -1.77 ± 0.18 | -2.43 ± 0.44
38 | UCUCAGCAAUAUUACGGGGU | -4.46 ± 0.37 | -2.8 ± 0.25
39 | UCUCAGCAAUAUUACGGGUC | -4.37 ± 0.34 | -1.52 ± 0.16
